Test results as given in publication PMC7461980, “High-Level Production of Recombinant Snowdrop Lectin in Sugarcane and Energy Cane” (Frontiers in Bioengineering and Biotechnology, 2020).
“And” between values parts separate entries of the source, which are not always exact repeats. Equal values may be shown once.

Tests used:
[1] = molecular target: the molecule itself; assay: MALDI-TOF MS; non-reducing conditions; sinapinic acid matrix; linear delayed positive ion mode; mass range 4,500-50,000 Da
P30617 = assay: SEC; TSKgel G3000SW xL, HPLC; 50 mM sodium phosphate, 0.3 M NaCl, pH 7.0; non-reducing conditions; 1.0 mL/min; absorbance at 220 and 280 nm; mass standards 6.5-675 kDa
[2] = molecular target: the molecule itself; assay: as above

Protein	stoichiometry N [1]	purity (relative peak abundance) of the tetramer (P30617)	stoichiometry N [2]
sugarcane recombinant GNA (Galanthus nivalis agglutinin, snowdrop lectin LECGNA2) (natural protein, UniProt P30617 20-128, looked up, Galanthus nivalis L. (snowdrop) lectin LECGNA2, expressed from the full-length cDNA (570 bp); the purified product is a band corresponding to mature GNA (about 12.0 kDa); The exact C-terminal end of the processed protein in sugarcane is not determined; native GNA 12,054.41 Da theoretical; also called sugarcane GNA) DNILYSGETLSTGEFLNYGSFVFIMQEDCNLVLYDVDKPIWATNTGGLSRSCFLSMQTDGNLVVYNPSNKPIWASNTGGQNGNYVCILQKDRNVVIYGTDRWATG	2 and 3	The purities of the recombinant GNA monomer and tetramer were 65.5% and 24%, respectively	4
recombinant GNA109 (G. nivalis lectin LECGNA2 with four additional amino acids, Thr106 His107 Thr108 Gly109, at the C-terminus of the mature protein) (natural protein, Galanthus nivalis, numbers count on: the mature protein; four additional amino acids Thr106 His107 Thr108 Gly109 at the C-terminus of the mature protein; Theoretical mass printed: 12,051.42 Da; source: synthesized (GenScript); purified using immobilized mannose) DNILYSGETLSTGEFLNYGSFVFIMQEDCNLVLYDVDKPIWATNTGGLSRSCFLSMQTDGNLVVYNPSNKPIWASNTGGQNGNYVCILQKDRNVVIYGTDRWATGTHTG	2 and 3	–	–
